Reference: paper PMC9409100

Legend:
Assay in all cases: pull-down
[1] = biological target: T1, His6-MBP-Csy4* (inactive Csy4) H29A;S50C (Pseudomonas aeruginosa) (UniProt Q02MM2); details: no imidazole; RNA folded in 20 mM Tris-HCl pH 7.5, 100 mM (salt not given), 3 mM MgCl2; binding 90 min at 4 C on beads; RNA binding buffer 20 mM Tris-HCl pH 7.5, 100 mM …
T1 sequence: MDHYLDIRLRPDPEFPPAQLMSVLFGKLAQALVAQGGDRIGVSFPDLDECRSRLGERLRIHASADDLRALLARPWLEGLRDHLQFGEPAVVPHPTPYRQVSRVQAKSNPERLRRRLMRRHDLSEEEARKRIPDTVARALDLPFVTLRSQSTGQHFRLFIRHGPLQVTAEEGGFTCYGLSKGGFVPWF

[2] = biological target: T2, His6-TwinStrep-Csy4* (inactive Csy4) H29A;S50C (Pseudomonas aeruginosa) (UniProt Q02MM2); details: no imidazole; RNA folded in 20 mM Tris-HCl pH 7.5, 100 mM (salt not given), 3 mM MgCl2; binding 90 min at 4 C on beads; RNA binding buffer 20 mM Tris-HCl pH 7.5, 100 mM …
T2 sequence: T1 sequence

[3] = biological target: T3, His6-Myc-Csy4* (inactive Csy4) H29A;S50C (Pseudomonas aeruginosa) (UniProt Q02MM2); details: no imidazole; 'almost 50%'; RNA folded in 20 mM Tris-HCl pH 7.5, 100 mM (salt not given), 3 mM MgCl2; binding 90 min at 4 C on beads; RNA binding buffer 20 mM Tris-HCl pH 7.5, 100 mM …
T3 sequence: T1 sequence

GGGUUCACUGCCGUAUAGGCAGAUAUAGAAGGUAGUGGAUCUCGACAGGGUUGAUAUGAGAACACACGAGUAAUCAACGGCUGUAAUGACGCUACGUCAUUGUUACAGCUCUCGUUUUCAUGUGUUCUCAGGUCACCCCUGCUGAGCUCUUUCUCUACCGUAAUUAC [Csy4-hairpin-tagged pri-miR398b-SL]
binding signal (% transcript depleted from supernatant) [1]: 80
binding signal (% transcript depleted from supernatant) [2]: < 10
binding signal (% transcript depleted from supernatant) [3]: 50
